Key:
[1] = enzyme as obtained from R&D Systems; cited from earlier work
[2] = Coupling capacity of the phosphatase (ADP completely hydrolyzed); type: biochemical; settings: 0.2 μg phosphatase
Excerpt: Phosphatases useful in embodiments of the invention are preferably able to completely hydrolyze all of the ADP generated in a kinase reaction. The amount of complete hydrolysis which can be performed by a phosphatase under a set of reaction conditions may be characterized as the coupling capacity of the phosphatase. As such, the coupling capacity represents the amount of ADP that can be completely hydrolyzed by a given amount of a phosphatase under specific conditions. Coupling capacity may be determined by performing a series of reactions, combining a set amount of phosphatase with increasing amounts of ADP. The reactions may be performed for various lengths of time, with different coupling capacities as a result. The desired reaction time and amount of phosphatase to be used in kinase reactions can then be selected such that the corresponding coupling capacity is greater than the anticipated amount of ADP produced in the kinase reaction. Coupling capacity can be determined as the maximum amount of ADP that is completely hydrolyzed by a given amount of phosphatase in FIG. 3. […] At this level of ADP production, the amount of phosphatase is therefore adequate. However, as the level of ADP produced increases beyond the capacity for a given amount of phosphatase, hydrolysis may not be complete. At this point, coupling capacity is not adequate for the ADP production during a kinase reaction, and the hydrolysis curve diverges and falls below the phosphate standard curve. […]
In order to provide a measurement of kinase activity, the phosphatase needs to be able to completely hydrolyze all ADP generated by the kinase reaction. In this example, the coupling capacity was determined by performing three series of reactions combining 0.2 μg rhCD39L2 with increasing amounts of ADP (3.125, 6.25, 12.5, 25, 50, and 100 nmols), with each series of reactions allowed to run for various lengths of time 10, 20 or 40 minutes. The reactions were stopped and free phosphate was measured using the Malachite Green assay as described above. […]

[3] = ADP hydrolysis curve with increasing amounts of phosphatase, free phosphate by Malachite Green; type: biochemical
Excerpt: The relative activity of the phosphatase on ADP and ATP can be measured by creating hydrolysis curves for ADP and ATP. For example, such hydrolysis curves may be created by performing a series of reactions separately combining set quantities of ADP or ATP with varying quantities of phosphatase and detecting the free phosphate produced. An example of such curves is described in Example 1 below. The resulting phosphate levels (or OD readings, which directly correspond to the phosphate levels) can be plotted against the amount of phosphatase used. The phosphate level or OD readings can be compared at the same quantity of the phosphatase to determine the relative activity of the phosphatase for ADP as compared to ATP. […] The amount of phosphatase to be used for kinase reactions is preferably selected from within the rapidly rising portion of the ADP hydrolysis curve. In addition, the relative activity of the phosphatase for ADP versus ATP is preferably compared within this rapidly rising portion of the hydrolysis curve, at or near the steepest portion of the curve. At phosphatase levels below this range, the generated signals are weak, while at phosphatase levels above this range, the ADP hydrolysis approaches completion, which could underestimate the activity of the phosphatase on ADP due to exhaustion of the substrate.
The kinase reactions were carried out in 50 μL of kinase assay buffer including 25 mM Tris, 150 mM NaCl, 5 mM MgCl2, and 5 mM CaCl2 at pH 7.5 in a 96 well plate at room temperature. Each reaction was stopped with 30 μL of Malachite Reagent A and 100 μL of water. The color was developed with 30 μL Malachite Reagent B. The plate was read at 620 nm with a multi-well plate reader. If the predicted phosphate content in the reaction was above 4,000 pmol, the reaction was diluted before phosphate detection.
In this experiment, the relative activity of rhCD39L2 on ADP and ATP was determined. In a first series of reactions, 100 nmol of 2 mM ATP was combined with increasing amounts of rhCD39L2 (0.03125 μg, 0.0625 μg, 0.125 μg, 0.25 μg, 0.5 μg) for 20 minutes. Likewise in a second series of reactions, 100 nmol of 2 mM ADP was combined with the same increasing amounts of rhCD39L2 for 20 minutes. The reactions were stopped after 20 minutes and free phosphate was measured using the Malachite Green assay as described above.
The relative activity of recombinant mouse CD 39L2 (rmCD39L2) on ADP and ATP was determined in a series of reactions similar to Example 1. 100 nmol of 2 mM ATP was combined with increasing amounts of rmCD39L2 (0.03125 μg, […], 0.125 0.25 μg, 0.5 μg). Likewise in a second series of reactions, 100 nmol of 2 mM ADP was combined with the same increasing amounts of rmCD39L2. The reactions were stopped after 5 minutes and free phosphate was measured using the Malachite Green assay as described above.
The experiment of Example 1 was repeated using recombinant human CD39L4 (rhCD39L4). 100 nmol of ATP (2 mM) was combined with increasing amounts of rhCD39L4 (0.03125 μg, 0.0625 μg, 0.125 μg, 0.25 μg, 0.5 μg, 1.0 μg). Likewise in a second series of reactions, 100 nmol of ADP (2 mM) was combined with the same increasing amounts of rhCD39L4 for 5 minutes. The reactions were stopped after 5 minutes and free phosphate was measured using the Malachite Green assay as described above. […] As such, the necessary preference of the phosphatase for ADP as compared to ATP is present.

coupling capacity ([2]; 10 minute reaction): 10 nmole of ADP
coupling capacity ([2]; 20 minute reaction): 20 nmole of ADP
coupling capacity ([2]; 40 minute reaction): 100 nmole of ADP
phosphate released from ADP ([3]; 0.25 μg phosphatase, 100 nmol of 2 mM ADP, 20 minutes): about 80 nmol
fold more active on ADP ([3]; Example 1, 20 minutes, allowing for two hydrolyzable phosphates of ATP): about 70 fold
fold more phosphate released from ADP than from ATP ([3]; rising phases of the ADP hydrolysis curve, 20 minutes): 35 fold
B1: rhCD39L2: recombinant human CD39L2, nucleotide phosphatase preferring ADP over ATP, used for coupling (protein, UniProt O75354 1-484, looked up)
Ectonucleoside triphosphate …: MKKGIRYETSRKTSYIFQQPQHGPWQTRMRKISNHGSLRVAKVAYPLGLCVGVFIYVAYIKWHRATATQAFFSITRAAPGARWGQQAHSPLGTAADGHEVFYGIMFDAGSTGTRVHVFQFTRPPRETPTLTHETFKALKPGLSAYADDVEKSAQGIRELLDVAKQDIPFDFWKATPLVLKATAGLRLLPGEKAQKLLQKVKKVFKASPFLVGDDCVSIMNGTDEGVSAWITINFLTGSLKTPGGSSVGMLDLGGGSTQIAFLPRVEGTLQASPPGYLTALRMFNRTYKLYSYSYLGLGLMSARLAILGGVEGQPAKDGKELVSPCLSPSFKGEWEHAEVTYRVSGQKAAASLHELCAARVSEVLQNRVHRTEEVKHVDFYAFSYYYDLAAGVGLIDAEKGGSLVVGDFEIAAKYVCRTLETQPQSSPFSCMDLTYVSLLLQEFGFPRSKVLKLTRKIDNVETSWALGAIFHYIDSLNRQKSPAS
specific activity [1]: > 20,000 pmol/min/μg

Source: patent publication US20140080161A1, “PHOSPHATASE COUPLED KINASE ASSAY” (RESEARCH AND DIAGNOSTIC SYSTEMS, INC., priority 2010, published 2014)
